From the nanobody polyreactivity screen of Harvey et al. (2022)

Test: yeast display, Sf9 membrane polyspecificity reagent, FACS + sequencing; frameworks hold sequencing errors
Summary of the method: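 Sorting gates, low and high (top ~1%), were placed on anti-HA fluorescence to track expression and on streptavidin fluorescence to track reagent binding. A clone's polyreactivity label is taken from the gate it came out of. The reagent was 10% biotinylated, detergent-solubilized Sf9 membrane, applied for 1 hour at 4 °C to galactose-induced yeast display cells.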

Sequence | polyreactivity (PSR sort gate)
QVQHVESGRGLVQAGGRLRLSCADSGMTFGYSAMGWYRPAPGKDRELVAAISGTAGDTYYADSVKGRFTISRDNAKNTVYLQMNSLKAEVTAVYYCAKVKRWFGVTIELDYWGQGTQGTVSS | low polyreactivity
QVQLVESVGGLVQAGGSLRLSCAASGFTFARYAMGWYIQAPGKERELVAAISISGGRTYYADSVKGRFTISRDNAKNTVYLQMNSLKPEDTAVYYCNKGHVPSYDYNYWGQGTQVTVSS | high polyreactivity
QVQLVESGGGIVQAGGSLRLSCAASGTLGSYRQAPGNEWELVAAISQSGGSTYYADSVKGRFTISRDNAKNTVYLQMNSLKPEDTAVYYCAVDPRYGHPRRDYWGQGTQVTVSS | low polyreactivity
QVQLVESGGGLVQAGGSLRLSCAASGFIFAANAMGRYRQAPGKEREMVAAISESGGSTYYADSVKGRFTISRDNAKNTVYLQLNSLKPEDTAVYYCNADIVWSPVLGEYYYWGQGTQVTVSS | high polyreactivity
QDQLVESGGGLVQAGGSLRLSCAASGYTFKAYAMVWYRQAPGKERELVDAISRGGRTNYADSVKGRFTISRDNAKNTVYLQMNSLKPEDTAVYYCNTQRQLGVRFYDRSRQGDYWGQGTQVTVSS | high polyreactivity
QVQLVESGGGLVQAGGSLRLSCAAYGSIFLYNALGGYIQAPGKEMELVADITSAGRTYYADSVKGRFTISRDNAKNTVYLQMNSLKPEDTAVYYCNKDYQYHFSWYGYWGQGTQVTVSS | low polyreactivity
HVQLVDSGGGLVQAGGSLRLSCAASGYTFKYNTMGWYRQAPGKERDLVAAITRSGGSTYYADSVKGRFTISRDNAKNTVYLQMNSLKPEDTAVYYCAARAAYKQPVSFDYWGQGTQVTVSS | high polyreactivity
QVQLVESGGGLVQAGGSLRLSCAASGSTFQYNVMGWYRQAPGKERELVAAITNRDGSTYYADSVKGRFTISRDNAKNTVYLQMNSLKPEDTAVYYCAAPVWLWADRYDSWGQGTQVTVSS | low polyreactivity
QVQLVESGGGLVQAGGSLRLSCAASGRTLTIYAMGWYRQAPGKERELVATIRSSGSTNYADSVKGRFTISRDNAKNTVYLQMNSLKPEDTAVYYCAARGNTPRTRRYGYWGQGTQVTVSS | high polyreactivity
QVQLVESGGGLVQAGGSLRLSCAASGRTFYYNTMGWYRQAPGKERELVAAISWRTGSTYYADSVKGRFTISRDNAKNTVYLQMNSLKPEDTAVYYCAAVLFGYPRTIGTWYDRYYYWGQGTQVTVSS | high polyreactivity
QVQLVESGGGLVKAGGSLRITCAASGRIFGYYPMGWYRPATGKESELVAAITRRGGITYYADSVKGRFTISRDNAKNTVYLPMNCLKPADTAVYYRAADRYWGYDYWGQGTQVTGSS | high polyreactivity
QVQLVESGGGLVQAGGSLRLSCASSGITFDKYAMGWYRQAPGKERELVAAINRSGGSTYYADSVKGRFTISRDNAKNTVYLQINSLKPEDTAVYYCAAVKPPDYYYWGQGTQVTVSS | high polyreactivity
QVQLVESGGGLVQAGGSLRLSCAASGRIFGLNAMGWYRQAPGKERELVAAISERDGSTYYADSVKGRFTISRDNAKNTVYLQMNSLKPEDTAVYYCAAVTPVHYVRGVHYDYWGQGTQVTVSS | low polyreactivity
QVHLVDSGGGLVQAGGSLRLSCAASGRTSIRYAMAWYRQAPGKERELVAAITYAAGSTYYADSVTGRFTISRDNAKNTVYLQMNSLKPEDTAVYYCNARVYYHYDFWGQGTQVTVSS | high polyreactivity
QVQLVESGGGLVQAGGSLRLSCAASGRTLIHYAMGWYRQAPGKERELVATINIGGRTYADSVKGRFTISRDNAKNTVYLQMNSLKPEDTAVYYCAADHRYSARRSVPTLYDYWGQGTQVTVSS | low polyreactivity
QVQLVESGGGLVQAGGSLRLSCAASGRTFTFNSMGGYRQAPGKERELFSRIDWRGITYADSVKGRFTISRDNAKYTVYLQMNSLKPEVTAVYYCSATFIQVVVNVQLYDYDYWGQGTQVTVSS | low polyreactivity
QVQLVESGGGLVQAGGSLRLSCAASGITFDVYAMGWYRQAPGKERELVAAISGSGGSTYYADSVKGRFTISRDNAKNTVYLQMNSLKPEDTAVYYCAASGPDGQYLWYDYWGQGTQVTVSS | high polyreactivity
QVQLVESGGGLVQAGGSLRLSCAASGSTFRANAMGRYRQAPGKERELVAAINSGGSTYYADSVKGRFTISRDNAKNTVYLQMNSLKPEDTAVYYCNKRYWRSDYWGQGTQVTVSS | high polyreactivity
QVQLVESGGGLVQAGGSLRLICAASGRIIARNAMGWYRQAPGKERELVAAITARGARTYYADSVKGRFTISRDNAKNTVYLQMNSLKPEDTAVYYCAVVQGNVYYTGDDYWGQGTQVTVSS | high polyreactivity
QVQLVESGGGLVQAGGSLRLSCAASGSTFIRNAMGWYRQAPGKERELVAVISSGGSTYYADSVKGRFTISRDNAKNTVYLQMNSLKPEDTAVYYCAAGDPQKEDYWGQGTQVTVSS | low polyreactivity
QVHLVESGGGLVQAGGSLRLSCAASGRTFYSNAMGWYRQPPGKERELVAAINSGGDTYYADSVKGRFTISRDNAKNTVYLQMNSLTPEDTAVYYCADDYYWEMDSWGQGTQVTVSS | low polyreactivity

Sequence | polyreactivity (PSR sort gate)
QVQLVESGGGLVQAGGSLRLSCAASGLTFYGNAMGWYRQAPGKERELVAAISSSGGTTYYADSVKGRFTISRDNEKNTVYLQMNSLKPEDTAVYYCNTRNTYFYAGYDYWGQGTQVTVSS | low polyreactivity
QVQLVESGGGLVQAGGSLRLSCAASGRIFTGYAMGWYRQAPGKERELVAAISRGGSTNYADSVKGRFTISRDNAKNSVYLQMNSLKPEDTAVYYCAAGVHWDRGDYWGQGTQVTVSS | low polyreactivity
QVQLVESGGGLVQAGGSLRLSCAASGRIYDYMAWYRQAPGKERELVAAISWRGGRTYYADSVKGRFTISRDNAKNTVYLQMNSLKPEDTAVYYCAAKTTYRYGYWGQGSQVTVSS | high polyreactivity
QVQLVESGGGLVQAGGSLRLSCAASGFIFRAYAMGWYRQAPGKERELVAAISYSGGSTYYADSVKGRFTISRDNAKNTVYLQMNSLKPEDTAVYYCAALTIRVGSLGRDYWGQGTQVTVSS | low polyreactivity
QVHLVESGGGLFQAGGSLRLRCAASGRIFRYNTMGWYRQAPGKERELVAAINSSGGRTYYADSVKGRFTISRDNAKNTVYLQMNSLKPDDTAVYYCAAVIYVLSGPGYDYWGQGTQVTVSE | high polyreactivity
QVQLVESGGGLVQAGGSLRLSCAASGRIFKSYAMGWYRQAPGKERELVAAISRGGRTNYADSVKGRFTISRDNAKNTVYLQMNSLKPEVTAVYYCAARFVVQGHSSPYDYWGQGTQVTVSS | high polyreactivity
QVQLVESGGGLVQAGGSLRLSCAASGFTIADYAMGWYRQAPGKERELVAAITYSGGSTYYADSVKGRFTISRDNAKNTVYLQMNSLKPEDTAVYYWNADYASQSGYDYWGQGTQVTVSS | low polyreactivity
QVQLVESGGGLVQAGGSLRLSCAASGYTFRKYAMGWYRQAPGKERELVAAITYTGGSTYYADSVKGRFTISRDNAKNTVYLQMNSLKPEDTAVYYCARRYRWGEYGYWGQGTQVTVSS | high polyreactivity
QVHLVESGGGLVQAGGSLRLSCAASGSIYHGNAMGWYRQAPGKERELVATISSGGSTYYADSLKVRFTISRDNAKNTVYLQMNSLKPEDTAVYYCAAERFWPYKSYYRGQGTQVTVSS | low polyreactivity
QVQLVESGGGLVQAGGSLRLSCAASGIILYRNGMGWYRQAPGKERELVAVISRRGGTYYADSVKGRFTISRDNAKITVYLQLNSLKPEDTAVYYCAAYLSPIGNFRGGGDYWGQGTQVTVSS | high polyreactivity
QVQLVESGGGLVQAGGSLRLSCAASGIFWYNMGWYRPAPGKERELVAAITASGGSRTYYADSVKGRFTISRDNAKNTVYLQMNSLKPEDTAVYYCAASSYSYLYYSWGQGTQVTVSS | high polyreactivity
QVQLVESGGGLVQAGGSLRIICAATGSIFYWNAMGWYRQSPGKEREFVASIRKSGGSTNYADSVKGRFTISRDNAKNTVYLQMTSQKPEDTAVYYCAAYSYYRGTFYDYWGQGTQVTVSS | low polyreactivity
QVQLVESGGGLVQAGGSLRLSCAASGFTFRYYAMGWYRQAPGKERELVASTYYADYVKGRFTISRDNAKNTVYLQMNSLKPEDTAVYYCNVDGTSSSPFVQKHKEMDYWGQGTQVTVSS | low polyreactivity
QVQLVESGGGLVQAGGSLRLSCAAYGSTFYAYAMGWYRQAPGKERELVAAIDSGGSTYYADSVKGRFTISRDNAKNTVYLQMNSLKPEDTAVYYCAVRHRYTRAYWGRDYWGQGTQVTVSS | low polyreactivity
QVKLVESGVGLVKAGVSLRLSSAASGFTFYSYAMGCYRQAPGKESELVAAISWSGSRTYYADSVKGRFTISRDNAKNTVYLQMNSLKPEDTGVYYCAAYSYVRYSSWSDYWGLGTQVTVSS | high polyreactivity
QVQLVESVGGLVQAGGSLRLSCAGSGFTFLYYAMGWYRQAPGKERELVDTISKSGGSTYYADSVKGRFTISRDNAKNTDYLQMNSLKPEDTAVDYFAAVGPYRWYDYWGQGTQVTVSS | high polyreactivity
QVQLVESGGGLVQAVGSLRLSCAASGSTFGRNAMGWYRQAPGKERELVAAISWSASRTYYADSVKGRFTISRDNAKNTVYLQMNSLKPEDTAVYFCAAEYDVGYFGYEYWGQGTQVTVSS | high polyreactivity
QVQLVESGGGLFQAGGSLRLTCAASGFTFIKYSMGWYRQAPGKEREFVATISWNGGNTYYADSVKGRFTISRDNAKNTVYLQMNSLKPEVTAVYYCAARVKYRTRGGTVVSYDYWGQGTQVTVSS | high polyreactivity
QVQLVETGGGLVQAGGSLRLSCAASGFTFYNNAMGWYGQAPGKERELGAVITSNGGRTYYADSVKGRFTISRDNAKNTVYLQMNSLKPEDTAVYYCAKDYKAMYLYHYRISGGDVDYWGQGTQVTVSS | low polyreactivity
QVQLVESGGGLLQAGGSLRLTCAASGSIFRYYSMGWYRQAPGKERELVASINSCGSTYYADSVKGRFTISRDNAKNTVYLQMKSLKPEDSAVYYCAAETSFYYRGYWKSYDYWGQGTQVTVSA | high polyreactivity
